Source: paper doi:10.1101/2023.06.15.545071, “POLARIS is a copper-binding peptide required for ethylene signalling control in Arabidopsis” (bioRxiv, 2023)

Biological target: T1, PLS linked to a C-terminal GFP (p35S::PLS:GFP) (Arabidopsis thaliana, UniProt Q8LLV8 1-36)
T1 construct: POLARIS (PLS) peptide, Arabidopsis thaliana, 36 amino acids; 'the 105-nucleotide PLS gene (without the stop codon)' in pEarlyGate103; source: Nicotiana benthamiana leaves, Agrobacterium infiltration, transient expression, in protein extract; not shown: GFP, C-terminal, kept
Test: co-IP; PLS:GFP and ETR1:HA co-expressed in N. benthamiana leaves, 3 d; anti-GFP beads or anti-HA beads, western blot; extract with 0.5 μM copper sulphate or 2 mM EDTA
Conditions: partners not purified

T1 sequence (Q8LLV8 whole entry): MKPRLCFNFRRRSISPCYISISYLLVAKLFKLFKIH

B1: ETR1 with a C-terminal HA tag (p35S::ETR1:HA) (receptor, Arabidopsis, UniProt P49333 1-738, looked up)
chain: MEVCNCIEPQWPADELLMKYQYISDFFIAIAYFSIPLELIYFVKKSAVFPYRWVLVQFGAFIVLCGATHLINLWTFTTHSRTVALVMTTAKVLTAVVSCATALMLVHIIPDLLSVKTRELFLKNKAAELDREMGLIRTQEETGRHVRMLTHEIRSTLDRHTILKTTLVELGRTLALEECALWMPTRTGLELQLSYTLRHQHPVEYTVPIQLPVINQVFGTSRAVKISPNSPVARLRPVSGKYMLGEVVAVRVPLLHLSNFQINDWPELSTKRYALMVLMLPSDSARQWHVHELELVEVVADQVAVALSHAAILEESMRARDLLMEQNVALDLARREAETAIRARNDFLAVMNHEMRTPMHAIIALSSLLQETELTPEQRLMVETILKSSNLLATLMNDVLDLSRLEDGSLQLELGTFNLHTLFREVLNLIKPIAVVKKLPITLNLAPDLPEFVVGDEKRLMQIILNIVGNAVKFSKQGSISVTALVTKSDTRAADFFVVPTGSHFYLRVKVKDSGAGINPQDIPKIFTKFAQTQSLATRSSGGSGLGLAISKRFVNLMEGNIWIESDGLGKGCTAIFDVKLGISERSNESKQSGIPKVPAIPRHSNFTGLKVLVMDENGVSRMVTKGLLVHLGCEVTTVSSNEECLRVVSHEHKVVFMDVCMPGVENYQIALRIHEKFTKQRHQRPLLVALSGNTDKSTKEKCMSFGLDGVLLKPVSLDNIRDVLSDLLEPRVLYEGM
notes: 'the ETR1 cDNA' in pEarlyGate301; source: Nicotiana benthamiana leaves, Agrobacterium infiltration, transient expression, in protein extract; not shown: HA, C-terminal, kept
- fold more co-precipitated with copper ions than with 2 mM EDTA: ~3 fold
